US20260242735A1

Key:
Experiment in all cases: alanine scan, flow cytometry, HEK293-T
[1] = target: human CD33 A168S (human) (UniProt P20138)
[2] = target: human CD33 A182S (human) (UniProt P20138)
[3] = target: human CD33 A183S (human) (UniProt P20138)
[4] = target: human CD33 D140A (human) (UniProt P20138)
[5] = target: human CD33 D70A (human) (UniProt P20138)
[6] = target: human CD33 E154A (human) (UniProt P20138)
[7] = target: human CD33 E63A (human) (UniProt P20138)
[8] = target: human CD33 E81A (human) (UniProt P20138)
[9] = target: human CD33 F177A (human) (UniProt P20138)
[10] = target: human CD33 G123A (human) (UniProt P20138)
[11] = target: human CD33 G188A (human) (UniProt P20138)
[12] = target: human CD33 G58A (human) (UniProt P20138)
[13] = target: human CD33 H137A (human) (UniProt P20138)
[14] = target: human CD33 I149A (human) (UniProt P20138)
[15] = target: human CD33 I176A (human) (UniProt P20138)
[16] = target: human CD33 I67A (human) (UniProt P20138)
[17] = target: human CD33 K159A (human) (UniProt P20138)
[18] = target: human CD33 K77A (human) (UniProt P20138)
[19] = target: human CD33 L78A (human) (UniProt P20138)
[20] = target: human CD33 N53A (human) (UniProt P20138)
[21] = target: human CD33 P46A (human) (UniProt P20138)
[22] = target: human CD33 P48A (human) (UniProt P20138)
[23] = target: human CD33 P55A (human) (UniProt P20138)
[24] = target: human CD33 P72A (human) (UniProt P20138)
[25] = target: human CD33 Q133A (human) (UniProt P20138)
[26] = target: human CD33 Q171A (human) (UniProt P20138)
[27] = target: human CD33 Q80A (human) (UniProt P20138)
[28] = target: human CD33 R119A (human) (UniProt P20138)
[29] = target: human CD33 R144A (human) (UniProt P20138)
[30] = target: human CD33 R190A (human) (UniProt P20138)
[31] = target: human CD33 R89A (human) (UniProt P20138)
[32] = target: human CD33 S104A (human) (UniProt P20138)
[33] = target: human CD33 S115A (human) (UniProt P20138)
[34] = target: human CD33 S124A (human) (UniProt P20138)
[35] = target: human CD33 S166A (human) (UniProt P20138)
[36] = target: human CD33 S178A (human) (UniProt P20138)
[37] = target: human CD33 S186A (human) (UniProt P20138)
[38] = target: human CD33 T173A (human) (UniProt P20138)
[39] = target: human CD33 T185A (human) (UniProt P20138)
[40] = target: human CD33 T191A (human) (UniProt P20138)
[41] = target: human CD33 T75A (human) (UniProt P20138)
[42] = target: human CD33 V106A (human) (UniProt P20138)
[43] = target: human CD33 W167A (human) (UniProt P20138)
[44] = target: human CD33 Y129A (human) (UniProt P20138)
[45] = target: human CD33 Y49A (human) (UniProt P20138)
human CD33 Y49A (human), sequence (P20138 18-364 Y49A limits assumed): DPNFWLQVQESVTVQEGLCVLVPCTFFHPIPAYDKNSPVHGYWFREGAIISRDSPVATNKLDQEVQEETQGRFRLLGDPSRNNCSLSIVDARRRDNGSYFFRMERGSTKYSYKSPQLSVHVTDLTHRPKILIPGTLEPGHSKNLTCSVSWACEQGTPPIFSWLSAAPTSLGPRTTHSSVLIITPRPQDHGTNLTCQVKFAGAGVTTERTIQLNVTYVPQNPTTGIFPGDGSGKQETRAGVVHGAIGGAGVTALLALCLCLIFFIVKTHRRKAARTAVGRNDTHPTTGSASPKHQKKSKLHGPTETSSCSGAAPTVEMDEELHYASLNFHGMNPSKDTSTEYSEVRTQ

human CD33 S124A (human), sequence (P20138 18-364 S124A limits assumed): as the sequence (P20138 18-364 Y49A limits assumed) above, with A32Y, S107A counted along it
human CD33 I176A (human), sequence (P20138 18-364 I176A limits assumed): as the sequence (P20138 18-364 Y49A limits assumed) above, with A32Y, I159A counted along it
human CD33 R119A (human), sequence (P20138 18-364 R119A limits assumed): as the sequence (P20138 18-364 Y49A limits assumed) above, with A32Y, R102A counted along it
human CD33 D140A (human), sequence (P20138 18-364 D140A limits assumed): as the sequence (P20138 18-364 Y49A limits assumed) above, with A32Y, D123A counted along it
human CD33 S166A (human), sequence (P20138 18-364 S166A limits assumed): as the sequence (P20138 18-364 Y49A limits assumed) above, with A32Y, S149A counted along it
human CD33 G123A (human), sequence (P20138 18-364 G123A limits assumed): as the sequence (P20138 18-364 Y49A limits assumed) above, with A32Y, G106A counted along it
human CD33 E154A (human), sequence (P20138 18-364 E154A limits assumed): as the sequence (P20138 18-364 Y49A limits assumed) above, with A32Y, E137A counted along it
human CD33 S115A (human), sequence (P20138 18-364 S115A limits assumed): as the sequence (P20138 18-364 Y49A limits assumed) above, with A32Y, S98A counted along it
human CD33 Q171A (human), sequence (P20138 18-364 Q171A limits assumed): as the sequence (P20138 18-364 Y49A limits assumed) above, with A32Y, Q154A counted along it
human CD33 E81A (human), sequence (P20138 18-364 E81A limits assumed): as the sequence (P20138 18-364 Y49A limits assumed) above, with A32Y, E64A counted along it
human CD33 Q133A (human), sequence (P20138 18-364 Q133A limits assumed): as the sequence (P20138 18-364 Y49A limits assumed) above, with A32Y, Q116A counted along it
human CD33 A183S (human), sequence (P20138 18-364 A183S limits assumed): as the sequence (P20138 18-364 Y49A limits assumed) above, with A32Y, A166S counted along it
human CD33 I149A (human), sequence (P20138 18-364 I149A limits assumed): as the sequence (P20138 18-364 Y49A limits assumed) above, with A32Y, I132A counted along it

**Q.** Refmab #7 (WM53) (antibody) was tested. Which Mean % WT Binding [1] did it give?
**A.** Its Mean % WT Binding is 117 % WT binding.

**Q.** What about the Mean % WT Binding [2] of the same substance?
**A.** The Mean % WT Binding was 114 % WT binding.

**Q.** What about the Mean % WT Binding [3] of the same substance?
**A.** Its Mean % WT Binding is 102 % WT binding.

**Q.** And the Mean % WT Binding [4]?
**A.** The Mean % WT Binding was 116 % WT binding.

**Q.** And the Mean % WT Binding [5]?
**A.** The Mean % WT Binding was 81.2 % WT binding.

**Q.** What about the Mean % WT Binding [6] of the same substance?
**A.** Its Mean % WT Binding is 108 % WT binding.

**Q.** What about the Mean % WT Binding [7] of the same substance?
**A.** Its Mean % WT Binding is 93 % WT binding.

**Q.** And the Mean % WT Binding [8]?
**A.** Its Mean % WT Binding is 98.4 % WT binding.

**Q.** And the Mean % WT Binding [9]?
**A.** The Mean % WT Binding was 74.1 % WT binding.

**Q.** And the Mean % WT Binding [10]?
**A.** Its Mean % WT Binding is 76 % WT binding.

**Q.** And the Mean % WT Binding [11]?
**A.** The Mean % WT Binding was 127 % WT binding.

**Q.** And the Mean % WT Binding [12]?
**A.** Its Mean % WT Binding is 97.2 % WT binding.

**Q.** What about the Mean % WT Binding [13] of the same substance?
**A.** Its Mean % WT Binding is 114 % WT binding.

**Q.** And the Mean % WT Binding [14]?
**A.** Its Mean % WT Binding is 96.9 % WT binding.

**Q.** And the Mean % WT Binding [15]?
**A.** The Mean % WT Binding was 103 % WT binding.

**Q.** And the Mean % WT Binding [16]?
**A.** The Mean % WT Binding was 135 % WT binding.

**Q.** What about the Mean % WT Binding [17] of the same substance?
**A.** Its Mean % WT Binding is 110 % WT binding.

**Q.** And the Mean % WT Binding [18]?
**A.** Its Mean % WT Binding is 117 % WT binding.

**Q.** What about the Mean % WT Binding [19] of the same substance?
**A.** The Mean % WT Binding was 88.9 % WT binding.

**Q.** And the Mean % WT Binding [20]?
**A.** The Mean % WT Binding was 140 % WT binding.

**Q.** And the Mean % WT Binding [21]?
**A.** Its Mean % WT Binding is 75.3 % WT binding.

**Q.** And the Mean % WT Binding [22]?
**A.** Its Mean % WT Binding is 42.5 % WT binding.

**Q.** And the Mean % WT Binding [23]?
**A.** Its Mean % WT Binding is 94.7 % WT binding.

**Q.** And the Mean % WT Binding [24]?
**A.** The Mean % WT Binding was 114 % WT binding.

**Q.** What about the Mean % WT Binding [25] of the same substance?
**A.** Its Mean % WT Binding is 100 % WT binding.

**Q.** What about the Mean % WT Binding [26] of the same substance?
**A.** Its Mean % WT Binding is 121 % WT binding.

**Q.** What about the Mean % WT Binding [27] of the same substance?
**A.** Its Mean % WT Binding is 124 % WT binding.

**Q.** What about the Mean % WT Binding [28] of the same substance?
**A.** The Mean % WT Binding was 116 % WT binding.

**Q.** And the Mean % WT Binding [29]?
**A.** The Mean % WT Binding was 120 % WT binding.

**Q.** And the Mean % WT Binding [30]?
**A.** Its Mean % WT Binding is 123 % WT binding.

**Q.** And the Mean % WT Binding [31]?
**A.** Its Mean % WT Binding is 94 % WT binding.

**Q.** What about the Mean % WT Binding [32] of the same substance?
**A.** Its Mean % WT Binding is 117 % WT binding.

**Q.** And the Mean % WT Binding [33]?
**A.** The Mean % WT Binding was 95.1 % WT binding.

**Q.** And the Mean % WT Binding [34]?
**A.** Its Mean % WT Binding is 81.8 % WT binding.

**Q.** And the Mean % WT Binding [35]?
**A.** Its Mean % WT Binding is 108 % WT binding.

**Q.** What about the Mean % WT Binding [36] of the same substance?
**A.** Its Mean % WT Binding is 106 % WT binding.

**Q.** What about the Mean % WT Binding [37] of the same substance?
**A.** The Mean % WT Binding was 93.4 % WT binding.

**Q.** What about the Mean % WT Binding [38] of the same substance?
**A.** The Mean % WT Binding was 103 % WT binding.

**Q.** What about the Mean % WT Binding [39] of the same substance?
**A.** Its Mean % WT Binding is 106 % WT binding.

**Q.** And the Mean % WT Binding [40]?
**A.** Its Mean % WT Binding is 116 % WT binding.

**Q.** And the Mean % WT Binding [41]?
**A.** Its Mean % WT Binding is 115 % WT binding.

**Q.** And the Mean % WT Binding [42]?
**A.** The Mean % WT Binding was 126 % WT binding.

**Q.** And the Mean % WT Binding [43]?
**A.** Its Mean % WT Binding is 127 % WT binding.

**Q.** What about the Mean % WT Binding [44] of the same substance?
**A.** Its Mean % WT Binding is 155 % WT binding.

**Q.** And the Mean % WT Binding [45]?
**A.** Its Mean % WT Binding is 13.7 % WT binding.
